# Results taken from US20070031417A1 (UNIVERSITY OF MASSACHUSETTS, published 2007).
# B1: RDE-4 (other)
# chain: MDLTKLTFESVFGGSDVPMKPSRSEDNKTPRNRTDLEMFLKKTPLMVLEEAAKAVYQKTPTWGTVELPEGFEMTLILNEITVKGQATSKKAARQKAAVEYLRKVVEKGKHEIFFIPGTTKEEALSNIDQISDKAEELKRSTSDAVQDNDNDDSIPTSAEFPPGISPTENWVGKLQEKSQKSKLQAPIYEDSKNERTERFLVICTMCNQKTRGIRSKKKDAKNLAAWLMWKALEDGIESLESYDMVDVIENLEEAEHLLEIQDQASKIKDKHSALIDILSDKKRFSDYSMDFNVLSVSTMGIHQVLLEISFRRLVSPDPDDLEMGAEHTQTEEIMKATAEKEKLRKKNMPDSGPLVFAGHGSSAEEAKQCACKSAIIHFNTYDFTD
# notes: Endogenous protein from C. elegans extract; also called T20G5.11
# B2: DRH-2 (enzyme)
# chain: MIVNLCNEHRDPLDDEYPPEQFFLSTFTIIFFDECHNTVKNSPYSNVMREYHYLKNMGNMPEGHSFPQIIGLTASLGTGDKKNCMQVRSYIAGLCANMDVKELSIVKDNLEELLDHNPFVTDQVSFCERSNDGPIEMFTKRLKQMMQEVEDLIRTTLKNEPTVKYEIPPTDKEHNRYENWISNQRNCVSLAGSRNKTLIIEVLDVLKDCFYALSYNINFNPEVALKKYLEKELGPERIRNFTDNMNLIWDNCHRELVGIGSAENPMIARTVQFILDQNEQTSDFRAIIFVRTKKEADFLNYVLNDRLHELGIKSDWMSGQKKSTASSADISASKQKQMEKLKMFADGENQILVSTSVAEEGLDIPECSLVIKYNYATNETAHVQRRGRARARNSKCVLITNSIALHVQESNNLAKENLMTETISLIQNSPGEFRQCVDEESNKVWPRIQREDTDKAQRIKEQINRNIVYKIVCMKCDTVLCTNKDIRSKNTQYIVCNPGFWSLVRRIPLPLEQRASNKFNSTGSIECLGERCGSKLGQLIDVNTVNLPCLKVKSILLLIESTNERILVKQWKNILDEHFTPTTLKQRDVQTMKDADYGRAPIEFEHHTANGEVINVIRQA
# notes: Endogenous protein from C. elegans extract; also called C01B10.1; Dicer-Related Helicase
# Key:
# Assay in all cases: found in two independent RDE-4 purifications, absent from controls, MudPIT (P = present)
# TBB-4 = molecular target: T1, TBB-4 (Caenorhabditis elegans, UniProt P41937 1-444)
# T1 construct: Endogenous protein from C. elegans extract; also called B0272.1; tubulin, Beta
# T1 sequence (P41937 whole entry): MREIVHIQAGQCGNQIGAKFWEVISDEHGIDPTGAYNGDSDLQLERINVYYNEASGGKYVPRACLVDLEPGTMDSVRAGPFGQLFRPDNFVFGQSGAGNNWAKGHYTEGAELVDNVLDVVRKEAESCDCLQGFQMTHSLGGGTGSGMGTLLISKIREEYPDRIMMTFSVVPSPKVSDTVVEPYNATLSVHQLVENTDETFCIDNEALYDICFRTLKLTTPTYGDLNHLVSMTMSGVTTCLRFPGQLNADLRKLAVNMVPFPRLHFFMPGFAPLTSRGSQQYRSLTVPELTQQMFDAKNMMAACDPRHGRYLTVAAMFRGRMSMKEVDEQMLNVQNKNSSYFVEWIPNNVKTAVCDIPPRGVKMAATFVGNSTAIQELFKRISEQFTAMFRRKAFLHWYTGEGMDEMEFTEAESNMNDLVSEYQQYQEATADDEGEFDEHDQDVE
# [1] = molecular target: T2, EFT-2, EF-Tu family GTP binding protein (Caenorhabditis elegans, UniProt P29691 2-852)
# T2 construct: Endogenous protein from C. elegans extract; also called F25H5.4; translation elongation factor 2
# RDE-4 = molecular target: B1
Binder,binding result (TBB-4),binding result [1],binding result (RDE-4)
B1,binds,binds,
B2,,,binds
